The results in this text go back to US6824972 (BAYLOR COLLEGE OF MEDICINE, dated 2004).

This assay concerns the target T1, NF-κB relA subunit (human, UniProt Q04206 1-551).
T1 construct: also called re1A; p65
Briefly: EMSA with supershift (antisera to p50 and relA), nuclear extracts of TNF-stimulated normal and patient G embryonic fibroblasts, 32P-labelled MHC-1 probe.

T1 sequence (Q04206 whole entry): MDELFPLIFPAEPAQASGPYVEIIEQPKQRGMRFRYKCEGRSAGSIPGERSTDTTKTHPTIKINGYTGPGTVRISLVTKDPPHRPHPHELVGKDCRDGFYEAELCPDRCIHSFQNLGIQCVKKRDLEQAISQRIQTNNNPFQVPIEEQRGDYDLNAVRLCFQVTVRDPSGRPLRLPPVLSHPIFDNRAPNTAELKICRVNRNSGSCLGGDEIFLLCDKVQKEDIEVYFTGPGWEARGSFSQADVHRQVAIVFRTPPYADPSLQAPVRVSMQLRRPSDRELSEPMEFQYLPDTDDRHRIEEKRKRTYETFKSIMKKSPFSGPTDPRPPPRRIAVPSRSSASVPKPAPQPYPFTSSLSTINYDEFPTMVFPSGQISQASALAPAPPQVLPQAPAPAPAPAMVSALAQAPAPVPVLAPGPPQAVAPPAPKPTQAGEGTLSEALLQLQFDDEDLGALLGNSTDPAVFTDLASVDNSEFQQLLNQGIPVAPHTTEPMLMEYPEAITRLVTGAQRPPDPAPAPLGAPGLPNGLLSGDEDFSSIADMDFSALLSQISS

B1: NF-κB p50 subunit (other, human, UniProt P19838 1-433, looked up)
chain: MAEDDPYLGRPEQMFHLDPSLTHTIFNPEVFQPQMALPTDGPYLQILEQPKQRGFRFRYVCEGPSHGGLPGASSEKNKKSYPQVKICNYVGPAKVIVQLVTNGKNIHLHAHSLVGKHCEDGICTVTAGPKDMVVGFANLGILHVTKKKVFETLEARMTEACIRGYNPGLLVHPDLAYLQAEGGGDRQLGDREKELIRQAALQQTKEMDLSVVRLMFTAFLPDSTGSFTRRLEPVVSDAIYDSKAPNASNLKIVRMDRTAGCVTGGEEIYLLCDKVQKDDIQIRFYEEEENGGVWEGFGDFSPTDVHRQFAIVFKTPKYKDINITKPASVFVQLRRKSDLETSEPKPFLYYPEIKDKEEVQRKRQKLMPNFSDSFGGGSGAGAGGGGMFGSGGGGGGTGSTGPGYSFPHYGFPTYGGITFHPGTTKSNAGMKHG
On to B1, for which the binding result is “binds”.
